Assay results as given in the supplement of paper PMC10567573.

B1: SOAT2 (parent)
chain: SLGKQKVFIIRKSLLDELMEVQHF
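Further: lentivirally expressed fusions sorted by FACS into six bins by GFP to DsRed ratio, PSI derived from sequencing read proportions per bin multiplied by bin number.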

Variants of: B1
Assay: protein stability index of a GFP-peptide fusion (GPS, HEK-293T) (PSI 1-6); higher = more stable
Details: c terminus: a fixed tail appended
Variant SLGKQKVFIILKSLLDELMEVQHF [R11L] has a protein stability index of 2.96. With SLGKQTVFIIRKSLLDELMEVQHF [K6T] the protein stability index was 3.25. SLGKQKVFISRKSLLDELMEVQHF [I10S] showed a protein stability index of 1.8. Work on SLGKQKVFIIRKSLLDELMEVQHL [F24L] yielded a protein stability index of 2.18. SLGKQKVFIIRKSLLDELMEVFHF [Q22F] showed a protein stability index of 2.2. Variant SLGKQKVFIIRKDLLDELMEVQHF [S13D] has a protein stability index of 3.49. In the case of SLGKMKVFIIRKSLLDELMEVQHF [Q5M], the protein stability index is reported as 3.06. Variant SLGKQKVFIIRKSLVDELMEVQHF [L15V] has a protein stability index of 1.78. Work on SLGKQKVFIIRKYLLDELMEVQHF [S13Y] yielded a protein stability index of 2.52. In the case of SLGKQKVFIIRKSLLIELMEVQHF [D16I], the protein stability index is reported as 2.98. SLGSQKVFIIRKSLLDELMEVQHF [K4S] showed a protein stability index of 2.25. With SLYKQKVFIIRKSLLDELMEVQHF [G3Y] the protein stability index was 2.76. Variant SLGKQKVFIIRKSLLDELMEVNHF [Q22N] has a protein stability index of 2.22. For SLGKQKVFIIRKSLLDELMQVQHF [E20Q], the protein stability index was 1.62. Work on SLGKQKVFIIRKSLLDEFMEVQHF [L18F] yielded a protein stability index of 1.41. Variant SLGKEKVFIIRKSLLDELMEVQHF [Q5E] has a protein stability index of 2.04. Variant SLGKQKVFIIRKLLLDELMEVQHF [S13L] has a protein stability index of 2.24. With SLGKQKVHIIRKSLLDELMEVQHF [F8H] the protein stability index was 1.71. With SLGFQKVFIIRKSLLDELMEVQHF [K4F] the protein stability index was 2.22. For SLGKGKVFIIRKSLLDELMEVQHF [Q5G], the protein stability index was 3.96. Variant SLGKQKRFIIRKSLLDELMEVQHF [V7R] has a protein stability index of 2.16. Variant SLGKQNVFIIRKSLLDELMEVQHF [K6N] has a protein stability index of 1.6. Work on SLGKQKVFIIRQSLLDELMEVQHF [K12Q] yielded a protein stability index of 2.96. For SLGKQKVFTIRKSLLDELMEVQHF [I9T], the protein stability index was 1.84. SLGKQKVFIIRKSLLPELMEVQHF [D16P] showed a protein stability index of 2.02. In the case of SLGKQKVFIIRKSLLDERMEVQHF [L18R], the protein stability index is reported as 1.98. SLFKQKVFIIRKSLLDELMEVQHF [G3F] gave a protein stability index of 2.29. SLGKQKVFIIRKSLLDTLMEVQHF [E17T] gave a protein stability index of 3.87. With SLGKQKVFIIKKSLLDELMEVQHF [R11K] the protein stability index was 1.77. In the case of SLGKQKVFIIRKSLLDELMYVQHF [E20Y], the protein stability index is reported as 2.9. TLGKQKVFIIRKSLLDELMEVQHF [S1T] gave a protein stability index of 4.03. For SLGKQKVFIIRKSLLFELMEVQHF [D16F], the protein stability index was 2.19. Variant SLGKQKVFIIMKSLLDELMEVQHF [R11M] has a protein stability index of 1.53. With SLGAQKVFIIRKSLLDELMEVQHF [K4A] the protein stability index was 1.55. SLGKQKVEIIRKSLLDELMEVQHF [F8E] showed a protein stability index of 2.58. With SLLKQKVFIIRKSLLDELMEVQHF [G3L] the protein stability index was 2.29. For SMGKQKVFIIRKSLLDELMEVQHF [L2M], the protein stability index was 2.25. SLGKPKVFIIRKSLLDELMEVQHF [Q5P] showed a protein stability index of 2.87. In the case of SLGKQKVFIIRKSLLDLLMEVQHF [E17L], the protein stability index is reported as 2.79. Work on SLGKQKVFIIRKSSLDELMEVQHF [L14S] yielded a protein stability index of 3.11. Work on SLGKQKVFIIRKSVLDELMEVQHF [L14V] yielded a protein stability index of 2.22. For SLGKQKVFITRKSLLDELMEVQHF [I10T], the protein stability index was 1.98. With SLGKQKVFIIRKSLLSELMEVQHF [D16S] the protein stability index was 2.09. For SLGKQKVDIIRKSLLDELMEVQHF [F8D], the protein stability index was 2.12. Work on SLGKQKVFIIRKSLLDELTEVQHF [M19T] yielded a protein stability index of 1.74. Work on SLGKQKVFIIRKSLTDELMEVQHF [L15T] yielded a protein stability index of 1.54. SLGKQKVWIIRKSLLDELMEVQHF [F8W] gave a protein stability index of 2.79. SLGKCKVFIIRKSLLDELMEVQHF [Q5C] showed a protein stability index of 2.75. SLGKQKVFIIRKSLLDELMEVQFF [H23F] gave a protein stability index of 1.87. With SLGKQKVFIIRKSLLDELMEDQHF [V21D] the protein stability index was 1.74. For SLGKQKVFIGRKSLLDELMEVQHF [I10G], the protein stability index was 1.91. In the case of SLGNQKVFIIRKSLLDELMEVQHF [K4N], the protein stability index is reported as 1.78. SLGKQKVFIPRKSLLDELMEVQHF [I10P] gave a protein stability index of 2.08. Work on SLGKQKVFIIRKSLLDELMEVQYF [H23Y] yielded a protein stability index of 2.64. For SLGKQKVFIIRKSLLDELMEVQPF [H23P], the protein stability index was 2.65. For SLGKQKVFIIRKSLLDELGEVQHF [M19G], the protein stability index was 2.23. For SLGKQKVFIIQKSLLDELMEVQHF [R11Q], the protein stability index was 2.54. In the case of SLGKQKVFIIRKSLLHELMEVQHF [D16H], the protein stability index is reported as 2.86. For KLGKQKVFIIRKSLLDELMEVQHF [S1K], the protein stability index was 2.94. For SLGKQKVFIIRKSLLDELMEAQHF [V21A], the protein stability index was 3.1. Variant SLGKQKVFIIRKSHLDELMEVQHF [L14H] has a protein stability index of 2.86. Variant SLGKQKVFIIRKSLLDELMCVQHF [E20C] has a protein stability index of 2.19. With SLGPQKVFIIRKSLLDELMEVQHF [K4P] the protein stability index was 1.74. In the case of SLGKQKVFIIRPSLLDELMEVQHF [K12P], the protein stability index is reported as 1.62. In the case of SLGKQKVFIIRKSLLDELMEVQGF [H23G], the protein stability index is reported as 1.86. SLGKQKVFIIRKSTLDELMEVQHF [L14T] gave a protein stability index of 2. For SLGKQKVFIIRKSLLDELEEVQHF [M19E], the protein stability index was 1.69. With SLGKQKVFIIRASLLDELMEVQHF [K12A] the protein stability index was 2.44. SLRKQKVFIIRKSLLDELMEVQHF [G3R] gave a protein stability index of 2.98. In the case of SLGKQKVFIIRKSLLDELMEMQHF [V21M], the protein stability index is reported as 1.89. With SLGKQKVVIIRKSLLDELMEVQHF [F8V] the protein stability index was 1.6. In the case of SLGKQKLFIIRKSLLDELMEVQHF [V7L], the protein stability index is reported as 3.44. In the case of SLGKQKVFIIRKSLLDILMEVQHF [E17I], the protein stability index is reported as 2.86. For SEGKQKVFIIRKSLLDELMEVQHF [L2E], the protein stability index was 1.75. With SLGKQPVFIIRKSLLDELMEVQHF [K6P] the protein stability index was 1.96. Variant SLGKQKVFIIRKSLLDELMEYQHF [V21Y] has a protein stability index of 2.38. SKGKQKVFIIRKSLLDELMEVQHF [L2K] gave a protein stability index of 1.44. SLTKQKVFIIRKSLLDELMEVQHF [G3T] showed a protein stability index of 2.83. With SLGKQKVFIIRKSLLDELMEVQCF [H23C] the protein stability index was 2.69. In the case of SLGKHKVFIIRKSLLDELMEVQHF [Q5H], the protein stability index is reported as 2.05. In the case of SLGKQKVFIIRKSLLDEHMEVQHF [L18H], the protein stability index is reported as 1.85. With SLGKQKVFIIRKSLLCELMEVQHF [D16C] the protein stability index was 2.63. Variant SLGKQKVFIIRKSLLDYLMEVQHF [E17Y] has a protein stability index of 1.85. SLGKQKVFIIRKSLLDVLMEVQHF [E17V] gave a protein stability index of 3.36. With SLGKQKVFIIRKSLLDELMEVHHF [Q22H] the protein stability index was 1.91. SLEKQKVFIIRKSLLDELMEVQHF [G3E] showed a protein stability index of 1.94. For SLGKQKVFIIGKSLLDELMEVQHF [R11G], the protein stability index was 3.02. With SLGKQKVFIIRKHLLDELMEVQHF [S13H] the protein stability index was 2.48. Variant SLGKQKCFIIRKSLLDELMEVQHF [V7C] has a protein stability index of 2.4. For SLGKQKVYIIRKSLLDELMEVQHF [F8Y], the protein stability index was 3.07. SLGKQKVFIIRISLLDELMEVQHF [K12I] showed a protein stability index of 2.77. Variant SLGKQKVFIIRKSLLDENMEVQHF [L18N] has a protein stability index of 2.54. SLGKQKVFIIRKSLLDNLMEVQHF [E17N] showed a protein stability index of 2.79. SLGKQKVFIIRKSLLDELMERQHF [V21R] gave a protein stability index of 2.92. For SLGKQKFFIIRKSLLDELMEVQHF [V7F], the protein stability index was 2.56. Variant SLGKQKVFIIRKSLLDEYMEVQHF [L18Y] has a protein stability index of 2.46. In the case of SLGKQKVFIIRKSLLDELMEVCHF [Q22C], the protein stability index is reported as 2.01. Variant SLHKQKVFIIRKSLLDELMEVQHF [G3H] has a protein stability index of 3.41. SLGKQKVIIIRKSLLDELMEVQHF [F8I] gave a protein stability index of 2.15. SLGKQKVFIQRKSLLDELMEVQHF [I10Q] gave a protein stability index of 1.87. In the case of SLGKQKVFIIRKSLLDELMEVGHF [Q22G], the protein stability index is reported as 3.24. Variant SLGKQKVFIIRKSLWDELMEVQHF [L15W] has a protein stability index of 2.68. With SLGKQKVFIIRKSLLDKLMEVQHF [E17K] the protein stability index was 2.17. SLGKQKVFLIRKSLLDELMEVQHF [I9L] showed a protein stability index of 1.21. With SLGKQKVFIHRKSLLDELMEVQHF [I10H] the protein stability index was 1.65. SLGKQKVFIIRKSLLDELYEVQHF [M19Y] showed a protein stability index of 1.36. Variant SLGKQKVFIIRKSLLDELNEVQHF [M19N] has a protein stability index of 3.23. STGKQKVFIIRKSLLDELMEVQHF [L2T] gave a protein stability index of 3.3. SLGKQKNFIIRKSLLDELMEVQHF [V7N] showed a protein stability index of 1.92. In the case of SLGKQKVFIIRKSLLDELSEVQHF [M19S], the protein stability index is reported as 2.25. SLGKQKVFIIRKSLLDELCEVQHF [M19C] gave a protein stability index of 2.15. SLGKQKVFIIRKSLLDELMKVQHF [E20K] gave a protein stability index of 2.57. SLGKQKVFIIRKSLLDQLMEVQHF [E17Q] showed a protein stability index of 3.16. Variant SLGKQKVMIIRKSLLDELMEVQHF [F8M] has a protein stability index of 1.58. With SLGKQKVFIIRKSLLDELMEVQVF [H23V] the protein stability index was 3.33. Variant SLGKQKVFIIRKSLLDELMEVQDF [H23D] has a protein stability index of 1.67. In the case of SLGKQKVFIIRKSLLDELMNVQHF [E20N], the protein stability index is reported as 3.04. In the case of SLGKQKVFIIRKPLLDELMEVQHF [S13P], the protein stability index is reported as 1.99. For SLGKQKHFIIRKSLLDELMEVQHF [V7H], the protein stability index was 1.59. SLGKQKVFGIRKSLLDELMEVQHF [I9G] gave a protein stability index of 1.79. Work on SLGKQKVFIIRKSLLDELMECQHF [V21C] yielded a protein stability index of 3.18. Variant SLGKQKVFIIPKSLLDELMEVQHF [R11P] has a protein stability index of 1.78. In the case of SLGKQKVFIITKSLLDELMEVQHF [R11T], the protein stability index is reported as 2.61. SLGKQKVFIIRKSLLDELMEVQRF [H23R] gave a protein stability index of 1.66. In the case of SLGKQKVFYIRKSLLDELMEVQHF [I9Y], the protein stability index is reported as 2.85. SLGKQKVFIIRKSLLDELMEVQHM [F24M] gave a protein stability index of 2.2. Work on SLGKQKVFNIRKSLLDELMEVQHF [I9N] yielded a protein stability index of 2.02. SLSKQKVFIIRKSLLDELMEVQHF [G3S] gave a protein stability index of 2.73. For SLGKQKVFIIRKSLLDELMEVPHF [Q22P], the protein stability index was 1.79. With MLGKQKVFIIRKSLLDELMEVQHF [S1M] the protein stability index was 2.1. Work on SLGCQKVFIIRKSLLDELMEVQHF [K4C] yielded a protein stability index of 2.88. SLGKQKVFIISKSLLDELMEVQHF [R11S] showed a protein stability index of 2.11. For SLGKQKVFIIRKFLLDELMEVQHF [S13F], the protein stability index was 3.49. Work on SLGKQKVFIFRKSLLDELMEVQHF [I10F] yielded a protein stability index of 3.02. SLGKQKVFIIRKSLLDELMEVRHF [Q22R] showed a protein stability index of 3.46. SLGKQKVFIIRKSLLDELMEVLHF [Q22L] gave a protein stability index of 2.24. For SLGKQKVFIMRKSLLDELMEVQHF [I10M], the protein stability index was 3.04. Work on SLGKQKVFIIRKSLLDELMETQHF [V21T] yielded a protein stability index of 1.93.
